Reference: PMC10445738

Assays:
Experiment in all cases: AP-MS
[1] = molecular target: HOIL-1-interacting protein (HOIP), endogenous (UniProt Q96EP0); details: FLAG-tagged OTULIN bait expressed in HEK293 cells; endogenous prey; parent: est. 27; read off a plot
[2] = molecular target: SLC9A3R2, endogenous (UniProt Q15599); details: FLAG-tagged OTULIN bait expressed in HEK293 cells; endogenous prey; read off a plot
[3] = molecular target: scribble (SCRIB), endogenous (UniProt Q14160); details: FLAG-tagged OTULIN bait expressed in HEK293 cells; endogenous prey; parent: est. 110; read off a plot
[4] = molecular target: SNX27, endogenous (UniProt Q96L92); details: FLAG-tagged OTULIN bait expressed in HEK293 cells; endogenous prey; parent: est. 62; read off a plot

Chain of UniProt Q15599 (Q15599 whole entry): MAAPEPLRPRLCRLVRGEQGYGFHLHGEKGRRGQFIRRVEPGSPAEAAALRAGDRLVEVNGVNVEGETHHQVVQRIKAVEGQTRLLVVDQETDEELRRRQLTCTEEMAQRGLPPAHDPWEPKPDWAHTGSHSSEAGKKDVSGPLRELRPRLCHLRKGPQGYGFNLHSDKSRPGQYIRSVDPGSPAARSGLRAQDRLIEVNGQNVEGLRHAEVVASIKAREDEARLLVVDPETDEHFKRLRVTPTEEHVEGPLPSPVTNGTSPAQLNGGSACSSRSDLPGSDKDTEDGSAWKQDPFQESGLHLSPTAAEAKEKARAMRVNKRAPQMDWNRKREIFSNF
Chain of UniProt Q14160 (Q14160 whole entry): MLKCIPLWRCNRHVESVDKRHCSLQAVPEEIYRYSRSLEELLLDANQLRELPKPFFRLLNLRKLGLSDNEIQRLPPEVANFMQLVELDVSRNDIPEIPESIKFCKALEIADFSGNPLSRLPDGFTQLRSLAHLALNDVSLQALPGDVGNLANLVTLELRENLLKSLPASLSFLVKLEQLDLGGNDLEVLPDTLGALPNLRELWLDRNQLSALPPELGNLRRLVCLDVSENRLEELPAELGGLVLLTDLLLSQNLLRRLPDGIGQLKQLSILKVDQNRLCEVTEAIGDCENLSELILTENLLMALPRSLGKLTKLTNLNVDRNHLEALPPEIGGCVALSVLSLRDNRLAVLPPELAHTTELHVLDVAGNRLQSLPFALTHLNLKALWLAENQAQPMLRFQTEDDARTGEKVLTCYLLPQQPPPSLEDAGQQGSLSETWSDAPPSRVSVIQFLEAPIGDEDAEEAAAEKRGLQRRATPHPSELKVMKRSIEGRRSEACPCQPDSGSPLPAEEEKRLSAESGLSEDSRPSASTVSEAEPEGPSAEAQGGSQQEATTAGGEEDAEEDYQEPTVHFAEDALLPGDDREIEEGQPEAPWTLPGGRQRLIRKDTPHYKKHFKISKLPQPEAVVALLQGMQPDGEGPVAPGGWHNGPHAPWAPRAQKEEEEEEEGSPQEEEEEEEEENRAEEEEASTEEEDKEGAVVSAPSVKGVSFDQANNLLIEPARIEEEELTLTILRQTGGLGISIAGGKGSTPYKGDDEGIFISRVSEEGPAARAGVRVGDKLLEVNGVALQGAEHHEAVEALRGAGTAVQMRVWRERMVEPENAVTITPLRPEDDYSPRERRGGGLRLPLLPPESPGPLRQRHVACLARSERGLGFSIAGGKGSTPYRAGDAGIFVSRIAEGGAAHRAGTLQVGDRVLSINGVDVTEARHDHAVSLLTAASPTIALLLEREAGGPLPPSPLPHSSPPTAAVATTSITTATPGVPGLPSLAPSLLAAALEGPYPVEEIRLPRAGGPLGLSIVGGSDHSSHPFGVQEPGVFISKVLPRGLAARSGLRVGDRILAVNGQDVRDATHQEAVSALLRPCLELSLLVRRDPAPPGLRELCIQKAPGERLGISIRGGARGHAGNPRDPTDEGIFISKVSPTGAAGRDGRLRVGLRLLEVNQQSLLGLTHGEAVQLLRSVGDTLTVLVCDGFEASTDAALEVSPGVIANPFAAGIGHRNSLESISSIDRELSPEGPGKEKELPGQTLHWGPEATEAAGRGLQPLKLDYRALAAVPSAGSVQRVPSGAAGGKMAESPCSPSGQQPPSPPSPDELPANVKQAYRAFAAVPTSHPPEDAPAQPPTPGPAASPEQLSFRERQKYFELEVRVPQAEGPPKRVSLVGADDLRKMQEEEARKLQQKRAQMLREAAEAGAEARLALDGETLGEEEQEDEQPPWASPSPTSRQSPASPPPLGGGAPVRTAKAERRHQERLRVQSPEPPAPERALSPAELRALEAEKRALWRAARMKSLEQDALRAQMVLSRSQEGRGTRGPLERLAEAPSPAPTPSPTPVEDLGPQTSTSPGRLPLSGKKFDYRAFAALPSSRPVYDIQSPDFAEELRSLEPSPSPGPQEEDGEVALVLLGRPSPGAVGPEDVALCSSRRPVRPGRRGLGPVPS
Chain of UniProt Q96EP0 (Q96EP0 whole entry): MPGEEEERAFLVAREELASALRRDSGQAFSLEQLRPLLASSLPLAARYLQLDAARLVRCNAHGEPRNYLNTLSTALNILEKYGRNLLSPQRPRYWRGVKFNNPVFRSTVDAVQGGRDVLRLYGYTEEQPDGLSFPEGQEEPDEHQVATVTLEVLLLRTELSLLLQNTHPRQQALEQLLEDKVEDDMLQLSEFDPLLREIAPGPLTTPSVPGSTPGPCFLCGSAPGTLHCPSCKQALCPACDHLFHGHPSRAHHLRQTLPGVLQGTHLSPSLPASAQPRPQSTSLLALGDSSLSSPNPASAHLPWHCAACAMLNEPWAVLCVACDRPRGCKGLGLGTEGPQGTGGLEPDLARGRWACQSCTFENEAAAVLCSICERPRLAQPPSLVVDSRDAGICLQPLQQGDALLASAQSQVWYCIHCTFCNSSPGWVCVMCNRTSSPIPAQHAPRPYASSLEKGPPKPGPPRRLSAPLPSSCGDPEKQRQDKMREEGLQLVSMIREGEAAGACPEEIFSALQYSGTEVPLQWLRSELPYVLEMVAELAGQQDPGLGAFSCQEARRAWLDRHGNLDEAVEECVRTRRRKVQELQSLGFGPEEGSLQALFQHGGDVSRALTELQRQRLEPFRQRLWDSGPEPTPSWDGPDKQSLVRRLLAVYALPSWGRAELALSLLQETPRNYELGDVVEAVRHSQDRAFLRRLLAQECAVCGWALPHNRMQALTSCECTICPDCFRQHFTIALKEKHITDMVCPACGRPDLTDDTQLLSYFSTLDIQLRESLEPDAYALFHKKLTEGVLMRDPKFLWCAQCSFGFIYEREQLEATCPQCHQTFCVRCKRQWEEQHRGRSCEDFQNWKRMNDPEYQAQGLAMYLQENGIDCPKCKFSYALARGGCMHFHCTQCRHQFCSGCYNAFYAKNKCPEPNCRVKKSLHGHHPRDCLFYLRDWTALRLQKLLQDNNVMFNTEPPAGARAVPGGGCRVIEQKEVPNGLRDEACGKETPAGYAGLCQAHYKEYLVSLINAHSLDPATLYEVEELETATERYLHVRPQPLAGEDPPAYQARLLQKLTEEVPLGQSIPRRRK

response (spectral counts) [1]: 23
response (spectral counts) [2]: 0
response (spectral counts) [3]: 0
response (spectral counts) [4]: 0
Substance: FLAG-tagged full-length OTULIN (WT) (from UniProt Q96BN8) ΔPBM: C-terminal ETSL to AAAA
